Data as given in patent US20250313634A1 (WUXI BIOLOGICS SHANGHAI, published 2025).

Tests used:
Test in all cases: capture ELISA on coated 1.14.4; relative to silent alanine substitutions
[1] = biological target: T1, hPD-L1_ECD.His point mutant S169A (human, UniProt Q9NZQ7 19-238)
T1 construct: extracellular domain
Protocol: (§1) After interacting with the supernatant that contains quantified PD-L1 mutant or human/mouse PD-L1_ECD.His protein (Sino Biological, China), HRP conjugated anti-His antibody (1:5000; Rockland Immunochemicals, Pottstown, PA) was added as detection antibody. Absorbance was normalized according to the average of control mutants. After setting an additional cutoff to the binding fold change (<0.55), the final determined epitope residues were identified.
(§2) The observed binding reductions most probably resulted from the instability or even collapse of hPD-L1 structure after alanine substitutions. After setting an additional cutoff to the binding fold change (<0.55), the final determined epitope residues were listed in Table 3.

[2] = biological target: T2, hPD-L1_ECD.His point mutant L214A (human, UniProt Q9NZQ7 19-238)
T2 construct: extracellular domain
Protocol: as §1, §2

[3] = biological target: T3, hPD-L1_ECD.His point mutant K162A (human, UniProt Q9NZQ7 19-238)
T3 construct: extracellular domain
Protocol: as §1, §2

[4] = biological target: T4, hPD-L1_ECD.His point mutant M59A (human, UniProt Q9NZQ7 19-238)
T4 construct: extracellular domain
Protocol: as §1, §2

[5] = biological target: T5, hPD-L1_ECD.His point mutant K75A (human, UniProt Q9NZQ7 19-238)
T5 construct: extracellular domain
Protocol: as §1, §2

[6] = biological target: T6, hPD-L1_ECD.His point mutant M115A (human, UniProt Q9NZQ7 19-238)
T6 construct: extracellular domain
Protocol: as §1, §2

[7] = biological target: T7, hPD-L1_ECD.His point mutant V147A (human, UniProt Q9NZQ7 19-238)
T7 construct: extracellular domain
Protocol: as §1, §2

[8] = biological target: T8, hPD-L1_ECD.His point mutant L74A (human, UniProt Q9NZQ7 19-238)
T8 construct: extracellular domain
Protocol: as §1, §2

[9] = biological target: T9, hPD-L1_ECD.His point mutant N135A (human, UniProt Q9NZQ7 19-238)
T9 construct: extracellular domain
Protocol: as §1, §2

[10] = biological target: T10, hPD-L1_ECD.His point mutant L142A (human, UniProt Q9NZQ7 19-238)
T10 construct: extracellular domain
Protocol: as §1, §2

[11] = biological target: T11, hPD-L1_ECD.His point mutant A121G (human, UniProt Q9NZQ7 19-238)
T11 construct: extracellular domain
Protocol: as §1, §2

[12] = biological target: T12, hPD-L1_ECD.His point mutant L94A (human, UniProt Q9NZQ7 19-238)
T12 construct: extracellular domain
Protocol: as §1, §2

[13] = biological target: T13, hPD-L1_ECD.His point mutant D122A (human, UniProt Q9NZQ7 19-238)
T13 construct: extracellular domain
Protocol: as §1, §2

[14] = biological target: T14, hPD-L1_ECD.His point mutant N63A (human, UniProt Q9NZQ7 19-238)
T14 construct: extracellular domain
Protocol: as §1, §2

[15] = biological target: T15, hPD-L1_ECD.His point mutant Y81A (human, UniProt Q9NZQ7 19-238)
T15 construct: extracellular domain
Protocol: as §1, §2

[16] = biological target: T16, hPD-L1_ECD.His point mutant I64A (human, UniProt Q9NZQ7 19-238)
T16 construct: extracellular domain
Protocol: as §1, §2

[17] = biological target: T17, hPD-L1_ECD.His point mutant F19A (human, UniProt Q9NZQ7 19-238)
T17 construct: extracellular domain
Protocol: as §1, §2

[18] = biological target: T18, hPD-L1_ECD.His point mutant D215A (human, UniProt Q9NZQ7 19-238)
T18 construct: extracellular domain
Protocol: as §1, §2

[19] = biological target: T19, hPD-L1_ECD.His point mutant E217A (human, UniProt Q9NZQ7 19-238)
T19 construct: extracellular domain
Protocol: as §1, §2

[20] = biological target: T20, hPD-L1_ECD.His point mutant E188A (human, UniProt Q9NZQ7 19-238)
T20 construct: extracellular domain
Protocol: as §1, §2

[21] = biological target: T21, hPD-L1_ECD.His point mutant I199A (human, UniProt Q9NZQ7 19-238)
T21 construct: extracellular domain
Protocol: as §1, §2

[22] = biological target: T22, hPD-L1_ECD.His point mutant D90A (human, UniProt Q9NZQ7 19-238)
T22 construct: extracellular domain
Protocol: as §1, §2

[23] = biological target: T23, hPD-L1_ECD.His point mutant D103A (human, UniProt Q9NZQ7 19-238)
T23 construct: extracellular domain
Protocol: as §1, §2

[24] = biological target: T24, hPD-L1_ECD.His point mutant E31A (human, UniProt Q9NZQ7 19-238)
T24 construct: extracellular domain
Protocol: as §1, §2

[25] = biological target: T25, hPD-L1_ECD.His point mutant R82A (human, UniProt Q9NZQ7 19-238)
T25 construct: extracellular domain
Protocol: as §1, §2

[26] = biological target: T26, hPD-L1_ECD.His point mutant Y32A (human, UniProt Q9NZQ7 19-238)
T26 construct: extracellular domain
Protocol: as §1, §2

T26 sequence (Q9NZQ7 19-238 Y32A): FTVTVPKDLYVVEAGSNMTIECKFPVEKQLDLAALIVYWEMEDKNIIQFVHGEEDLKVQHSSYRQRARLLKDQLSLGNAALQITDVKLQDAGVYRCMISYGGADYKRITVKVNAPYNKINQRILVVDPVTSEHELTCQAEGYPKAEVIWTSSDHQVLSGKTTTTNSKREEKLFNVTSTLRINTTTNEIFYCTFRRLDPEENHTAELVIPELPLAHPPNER
T18 sequence (Q9NZQ7 19-238 D215A): as the sequence (Q9NZQ7 19-238 Y32A) above, with A14Y, D197A counted along it
T24 sequence (Q9NZQ7 19-238 E31A): as the sequence (Q9NZQ7 19-238 Y32A) above, with E13A, A14Y counted along it
T15 sequence (Q9NZQ7 19-238 Y81A): as the sequence (Q9NZQ7 19-238 Y32A) above, with A14Y, Y63A counted along it
T8 sequence (Q9NZQ7 19-238 L74A): as the sequence (Q9NZQ7 19-238 Y32A) above, with A14Y, L56A counted along it
T14 sequence (Q9NZQ7 19-238 N63A): as the sequence (Q9NZQ7 19-238 Y32A) above, with A14Y, N45A counted along it
T10 sequence (Q9NZQ7 19-238 L142A): as the sequence (Q9NZQ7 19-238 Y32A) above, with A14Y, L124A counted along it
T4 sequence (Q9NZQ7 19-238 M59A): as the sequence (Q9NZQ7 19-238 Y32A) above, with A14Y, M41A counted along it
T22 sequence (Q9NZQ7 19-238 D90A): as the sequence (Q9NZQ7 19-238 Y32A) above, with A14Y, D72A counted along it
T16 sequence (Q9NZQ7 19-238 I64A): as the sequence (Q9NZQ7 19-238 Y32A) above, with A14Y, I46A counted along it
T21 sequence (Q9NZQ7 19-238 I199A): as the sequence (Q9NZQ7 19-238 Y32A) above, with A14Y, I181A counted along it
T17 sequence (Q9NZQ7 19-238 F19A): as the sequence (Q9NZQ7 19-238 Y32A) above, with F1A, A14Y counted along it
T5 sequence (Q9NZQ7 19-238 K75A): as the sequence (Q9NZQ7 19-238 Y32A) above, with A14Y, K57A counted along it
T20 sequence (Q9NZQ7 19-238 E188A): as the sequence (Q9NZQ7 19-238 Y32A) above, with A14Y, E170A counted along it
T12 sequence (Q9NZQ7 19-238 L94A): as the sequence (Q9NZQ7 19-238 Y32A) above, with A14Y, L76A counted along it
T1 sequence (Q9NZQ7 19-238 S169A): as the sequence (Q9NZQ7 19-238 Y32A) above, with A14Y, S151A counted along it
T7 sequence (Q9NZQ7 19-238 V147A): as the sequence (Q9NZQ7 19-238 Y32A) above, with A14Y, V129A counted along it
T2 sequence (Q9NZQ7 19-238 L214A): as the sequence (Q9NZQ7 19-238 Y32A) above, with A14Y, L196A counted along it
T13 sequence (Q9NZQ7 19-238 D122A): as the sequence (Q9NZQ7 19-238 Y32A) above, with A14Y, D104A counted along it
T19 sequence (Q9NZQ7 19-238 E217A): as the sequence (Q9NZQ7 19-238 Y32A) above, with A14Y, E199A counted along it
T6 sequence (Q9NZQ7 19-238 M115A): as the sequence (Q9NZQ7 19-238 Y32A) above, with A14Y, M97A counted along it
T25 sequence (Q9NZQ7 19-238 R82A): as the sequence (Q9NZQ7 19-238 Y32A) above, with A14Y, R64A counted along it
T9 sequence (Q9NZQ7 19-238 N135A): as the sequence (Q9NZQ7 19-238 Y32A) above, with A14Y, N117A counted along it
T23 sequence (Q9NZQ7 19-238 D103A): as the sequence (Q9NZQ7 19-238 Y32A) above, with A14Y, D85A counted along it
T3 sequence (Q9NZQ7 19-238 K162A): as the sequence (Q9NZQ7 19-238 Y32A) above, with A14Y, K144A counted along it
T11 sequence (Q9NZQ7 19-238 A121G): as the sequence (Q9NZQ7 19-238 Y32A) above, with A14Y, A103G counted along it

B1: 1.14.4 (antibody, V domains shown)
VH: EVQLLESGGGLVQPGGSLRLSCAASGFTFSSYAMSWVRQAPGKGLEWVSGISGSGGFTYYADSVKGRFTISRDNSKNTLYLQMNSLRAEDTAVYYCAKPPRGYNYGPFDYWGQGTLVTVSS
VL: SYVLTQPPSVSVAPGQTARITCGGNNIGSKSVHWYQQKPGQAPVLVVYDDSDRPSGIPERFSGSNSGNTATLTISRVEAGDEADYYCQVWDSSSDHVVFGGGTKLTVL
notes: Fully human monoclonal antibody with a human constant region of IgG4 isotype
fold change [1]: 0.939 fold | fold change [2]: 0.958 fold | fold change [3]: 0.99 fold | fold change [4]: 1.01 fold | fold change [5]: 1.01 fold | fold change [6]: 1.02 fold | fold change [7]: 1.02 fold | fold change [8]: 1.02 fold | fold change [9]: 1.03 fold | fold change [10]: 1.05 fold | fold change [11]: 1.15 fold | fold change [12]: 1.19 fold | fold change [13]: 1.22 fold | fold change [14]: 0.285 fold | fold change [15]: 0.692 fold | fold change [16]: 0.716 fold | fold change [17]: 0.78 fold | fold change [18]: 0.811 fold | fold change [19]: 0.823 fold | fold change [20]: 0.833 fold | fold change [21]: 0.848 fold | fold change [22]: 0.858 fold | fold change [23]: 0.863 fold | fold change [24]: 0.908 fold | fold change [25]: 0.934 fold | fold change [26]: 0.935 fold
